Laboratory results taken from the supplement of paper PMC12764529.
± gives the half width of the 95% confidence interval.

Tests used:
[1] = folding stability dG unfold from trypsin proteolysis; higher = more stable
Procedure, shortened: (§1)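 How resistant each design was to proteolysis was captured as K50, inferred by Bayesian fitting of sequencing counts. Unfolding free energy was then derived relative to a sequence-predicted unfolded-state K50 and a shared folded-state K50, per protease or combined. Digestion used trypsin and chymotrypsin at 11 threefold-diluted concentrations plus a no-protease condition, on mini-proteins under 80 residues without cysteine in a PA-tagged cDNA display construct. Designs were kept only when AlphaFold2 dimer inter-PAE was above 15.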

[2] = folding stability dG unfold from chymotrypsin proteolysis; higher = more stable
Procedure, shortened: as §1

[3] = folding stability dG unfold (combined trypsin and chymotrypsin); higher = more stable
Procedure, shortened: as §1

Row | Sequence | folding stability dG unfold [1] [kcal/mol] | folding stability dG unfold [2] [kcal/mol] | folding stability dG unfold [3] [kcal/mol]
1 | SAGGSAGGSVLVIDSPEQIKKAIKEFKDNGAKSIHIRGPGRYWVIQIDPKEPKVKVERVPLGQSAGGSAGGS [r12_368_TrROS] | 0.639 ± 0.096 | 0.674 ± 0.17 | 0.643 ± 0.16
2 | SAGGSAGGSVPLELELTFKLENGSFIVVKAKIEFNPETPEFKVEVLSVEIFLEPEGKIVSDEDFSAGGSAGG [r6_864_TrMRF] | 1.43 ± 0.087 | 3.08 ± 0.085 | 2.44 ± 0.29
3 | SAGGSAGGSWDRIKDALRKYGFPPENVKIEFETYPNGNMNVMIRHNGEQIPRNRINKAIQELMSAGGSAGGS [r12_175_TrROS] | 1.27 ± 0.035 | 1.46 ± 0.096 | 1.54 ± 0.22
4 | SAGGSAGGSWFIRVEYKRPNGQPKTLQIPVPRDQLKKMSIDEIKDRAENLGLPPNVKIEWYPFSAGGSAGGS [r12_742_TrROS] | 1.04 ± 0.032 | 1.78 ± 0.061 | 1.55 ± 0.056
5 | SAGGSAGGSWIILIHWPNGKEIPIFFKSPEEANEIAEEIKKIFQEKGMEPVSVEIYPIKPGQMSAGGSAGGS [r12_301_TrROS] | 2.47 ± 0.086 | 2.26 ± 0.071 | 2.32 ± 0.21
6 | SAGGSAGGSWKIVEIEVQRFPDGMYMVEIRFPDHGMPVTVHIDPPKNKITIYFPNGRSIEIPFSAGGSAGGS [r12_88_TrROS] | 3.26 ± 0.11 | 4.22 ± 0.089 | 3.99 ± 0.12
7 | SAGGSAGGSWKPIPYKIKMTDGDGEKHEFPVQIWVAPEDGWVFIDFPNGHPFWIPANNIKIEPSAGGSAGGS [r12_256_TrROS] | 0.66 ± 0.062 | 1.88 ± 0.12 | 1.4 ± 0.13
8 | SAGGSAGGSWVRDADGKPIPFKIDSVETKEENNPNGNRYYEIEARFPDNGKEFKATIPADDIKSAGGSAGGS [r12_823_TrROS] | -0.551 ± 0.26 | 0.526 ± 0.2 | 0.248 ± 0.11
9 | SAGGSAGGSYKIDKIEVQPPPGGYYQATIEVEQVDPENGNPQRQEQEIPVPANDPKQIKDFLKSAGGSAGGS [r12_691_TrROS] | -0.523 ± 0.19 | 0.379 ± 0.16 | 0.174 ± 0.22
10 | SAGGSAGGSYTVETSPVPPGGLLKTYTSPDGVVTTTLYSPDGTVGETTTTPVPPVVPPDPAAAASAGGSAGG [r6_239_JUSTAS] | -0.067 ± 0.075 | 1.33 ± 0.053 | 0.921 ± 0.11
11 | SAGGSAGGSYYPIEDPNGMKIWVEPDPDNGMYRIRIQFPEGKKVERTFPPGMPLDDIPIKIKDSAGGSAGGS [r12_261_TrROS] | 0.688 ± 0.094 | -0.0445 ± 0.38 | 0.434 ± 0.24
12 | SAGGSAGGTAEQIREIVEQLFRKRGMEPKKIEIKRVERNGDKVTIEVEWRWDNGRKRPRNIQIPSAGGSAGG [r6_841_TrROS] | 0.722 ± 0.17 | 1.66 ± 0.12 | 1.18 ± 0.17
13 | SAGGSAGGTFEFFFPDGLYFTVEFRIVEMHPNPGNGQMHMRMEATIKIIPLPPPPPPPKDPGDKSAGGSAGG [r6_939_TrROS] | 2.71 ± 0.087 | 4.3 ± 0.12 | 3.83 ± 0.2
14 | SAGGSAGGTIIIEVDTREDALEAARALAEALLPPGYRVEIVSVEEVDGRVYVAIEVRPVPEEELSAGGSAGG [r6_72_TrROS_Hall] | 2.43 ± 0.12 | 3.26 ± 0.078 | 3.17 ± 0.12
15 | SAGGSAGGTIPSDYSVKELKVGGKKYVIVRYPDGIVELYSVEGNKKTLLRTVDTDPNASVSISGSAGGSAGG [r6_476_JUSTAS] | 1.73 ± 0.044 | 2.67 ± 0.04 | 2.38 ± 0.097
16 | SAGGSAGGTLKELIDNITRVDPENGKQRMRIPGGAEIEINPEEGQIKIRYYHPGKPQEITLPLPSAGGSAGG [r6_793_TrROS] | 0.46 ± 0.25 | 0.776 ± 0.24 | 0.651 ± 0.31
17 | SAGGSAGGVISEEEIEAKAEEAKAEAIAAGLESKEVTITSPSGKVYKITVDVNSITIEKSPAAGSAGGSAGG [r6_270_JUSTAS] | 0.879 ± 0.088 | 0.743 ± 0.088 | 0.832 ± 0.16
18 | SAGGSAGGVLRMVRRALKNGKNRPIVIYVPEPEQRNFIKWLKDEWPGIKIKVVPPDQMPPNQIISAGGSAGG [r6_87_TrROS] | 1.42 ± 0.033 | 1.31 ± 0.068 | 1.46 ± 0.094

Row | Sequence | folding stability dG unfold [1] [kcal/mol] | folding stability dG unfold [2] [kcal/mol] | folding stability dG unfold [3] [kcal/mol]
19 | SAGGSAGGVVLEVEIPYESEEEAREKAEEVLKELGLPESAKITKIEFYPGPGEKKSVKVYIKLESAGGSAGG [r6_284_JUSTAS] | 1.92 ± 0.06 | 1.73 ± 0.018 | 1.83 ± 0.059
20 | SAGGSAGGWIPPEMARNIAKTLRDKGWPVEDIEVEREPNGWVTVDVDIQYPDGKKRKYPIQIPYSAGGSAGG [r6_762_TrROS] | -0.439 ± 0.22 | 0.226 ± 0.23 | 0.0547 ± 0.17
21 | SAGGSAGGWITPDAAKEFADKWGFDDVNVEVLDVDPNNNYVRVKVTARNPKNGNERPIGEFWFPSAGGSAGG [r6_699_TrROS] | 0.585 ± 0.056 | 1.46 ± 0.045 | 1.2 ± 0.066
22 | SAGGSAGGWREIKIYVPPGMPLEEIKDLIKEFFPGYKVEIDEIEREDNYVKATIRIQPLPPGDFSAGGSAGG [r6_623_TrROS] | 3.08 ± 0.092 | 2.81 ± 0.04 | 2.96 ± 0.071
23 | SAGGSAGGWRIKIMPMGGKKKKIPIDSPEEIIDKIQKEAKEDGLPGNVRITVEYNGQKRTFTIRSAGGSAGG [r6_532_TrROS] | 1.41 ± 0.16 | -0.203 ± 0.6 | 0.658 ± 0.2
24 | SAGGSAGIKAVLNLGDKPVLVLIEPLPDGSFPVIAIFADDGSKVEKVIPASDIGELLSLDPDKLTFSAGGSA [r15_629_TrMRF] | 0.859 ± 0.035 | 0.0558 ± 0.26 | 0.6 ± 0.18
25 | SAGGSAGKNKPFPLPILIEAHPDDPEEAAERLKAELEALFPGPIKVEIVEVDPEKGIITAIVTVDGSAGGSA [r15_1024_TrMRF] | 0.985 ± 0.038 | 1.58 ± 0.073 | 1.31 ± 0.096
26 | SAGGSAGKPVLVRVKLRLEFPGTGELAEAEVVVEADSIEDALDRVLKELTLPDFKAEVLDVKAIPLSAGGSA [r2_320_TrMRF] | 2.1 ± 0.11 | 2.03 ± 0.029 | 2.16 ± 0.13
27 | SAGGSAGMPLVTAPVTRDPNSDVVTLTVYDPRTGETHTYTSPGSVEEAVEAFREATGLPISEVVLESAGGSA [r15_101_JUSTAS] | 1.45 ± 0.078 | 1.44 ± 0.057 | 1.51 ± 0.099
28 | SAGGSAGMPPDEPVVKTTVIPTSTAVKDAAGNPLTPEELAAAVKAAYPDVEVSFGPGNTLTITLTRSAGGSA [r15_645_JUSTAS] | 1.33 ± 0.059 | 1.11 ± 0.05 | 1.25 ± 0.091
29 | SAGGSAGMTITSATEVGTTTFNGGSITHYTLTTPSGKTITGEVDPATGTLTISFPETGLSITIPPKSAGGSA [r15_159_JUSTAS] | 1.09 ± 0.023 | 0.729 ± 0.19 | 1 ± 0.1
30 | SAGGSAGPEITPPVVVVTFTFKFPDGKTIEIPTTDLEEGEKEIEKIKKPLLEKKNIELVKVTTKPVSAGGSA [r15_140_JUSTAS] | -0.607 ± 0.37 | -0.389 ± 0.36 | -0.583 ± 0.36
31 | SAGGSAGPKVEVELFPVPPFAPGSEFVLLVKTEDGDVILQRFRVKLEGNEPKIEPLGSIVLKPDELSAGGSA [r15_636_TrMRF] | 1.08 ± 0.036 | 2.09 ± 0.062 | 1.78 ± 0.1
32 | SAGGSAGPPKPGKIELEFEDPSGGKKYKVDIYIYPNNEVKTKALNPDGTPIPEEEIKKILKKLGLKSAGGSA [r15_872_JUSTAS] | 0.37 ± 0.082 | 1.75 ± 0.12 | 1.29 ± 0.26
33 | SAGGSAGPSVTVDVTFHPGEGTVDVTVTTEGEVVYGKGTFLNPSTVLVEVYFPGSGKVATLTLPVTSAGGSA [r15_837_TrMRF] | 1.87 ± 0.066 | 1.61 ± 0.07 | 1.73 ± 0.052
34 | SAGGSAGRVRVELELEIVVDTPEEARALAEELARRFPSIVRVEVEVRRRPDGRLVVRVRLEVELPPSAGGSA [r15_726_TrROS_Hall] | 3.3 ± 0.061 | 3.32 ± 0.077 | 3.31 ± 0.1
35 | SAGGSAGSFVNLGPEESEGVIVVTYYNEDGTTTTATYTYFPSPKTVSSNGPVTVPPNYKLSVSPLLSAGGSA [r15_198_JUSTAS] | 0.165 ± 0.051 | 1.13 ± 0.054 | 0.818 ± 0.067
36 | SAGGSAGSKPVTINWKITHPDGTPTTIPFSFPTEEQALEEALKAAEALAKEAGYPDFKIEIDEIIPSAGGSA [r15_698_TrMRF] | 0.0851 ± 0.091 | 0.47 ± 0.12 | 0.358 ± 0.091
